± gives the half width of the 95% confidence interval.
Columns and labels:
[1] = folding stability dG unfold from chymotrypsin proteolysis; higher = more stable
Method: (§1)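 Folding stability of de novo designed mini-proteins (<80 aa, no Cys; designed by TrROS, TrMRF, ProteinMPNN and the joint model) was measured by cDNA display proteolysis with trypsin and chymotrypsin. Each protease was used at 11 concentrations in a threefold dilution series plus a no-protease condition. K50 was inferred by Bayesian fitting of sequencing counts, and dG unfold was derived against a sequence-predicted unfolded-state K50 (Tsuboyama et al. method). Sequences shown include variable-length N-terminal GS-type padding (SAGGSAGG...) inside a display construct carrying a PA tag. Rows were kept only if the AF2 dimer inter-PAE was >15, to exclude likely homo-oligomers.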

[2] = folding stability dG unfold (combined trypsin and chymotrypsin); higher = more stable
Method: as §1

Sequence | folding stability dG unfold [1] [kcal/mol] | folding stability dG unfold [2] [kcal/mol]
SAGGSAGGGSMDPKVETEEFEEPGREVKREKLPDGLVVTEYTEPDGPKSTVVTDPETGKVTVIGSAGGSAGG [r6_159_JUSTAS] | 0.653 ± 0.079 | 0.082 ± 0.15
SAGGSAGGLKPGDTVTLPIEIWIMHMETKKDPNGDPEPRMEPYPYRIPITIPADDLNDGKITLTSAGGSAGG [r6_138_TrROS] | 0.0398 ± 0.46 | < -1
SAGGSAGGLLPDQRVRLRLTRTSPDGEPEEATVELTNIPSSITPSSTLTFPGEGDTWEVEEITTSAGGSAGG [r6_560_TrMRF] | -0.184 ± 0.21 | < -1
SAGGSAGGMSLEEAVEEAAAAVSPDETAEVVLTVEVSEPLTFPEPPDRLVTRPRTVRVRVRAPASAGGSAGG [r6_543_JUSTAS] | 0.488 ± 0.11 | 0.319 ± 0.19
SAGGSAGGMTARKTYEVEVPADDPDALADLAFDLPAGDTVYFRTPGPDLRAVVTDDVPVVEPAGSAGGSAGG [r6_550_TrMRF] | 0.0243 ± 0.18 | < -1
SAGGSAGGMTIPLPGSVEEIQELLGGPIKEYTEEAPGSGTLTLPNGTPITVERESPELLKEVLRSAGGSAGG [r6_19_JUSTAS] | -0.0581 ± 0.16 | -0.593 ± 0.37
SAGGSAGGMTPEEIRDALAAKLRAADPDVEVRPVRQEGDEVVVVVTRPATGERREVRVPADVPLSAGGSAGG [r6_446_JUSTAS] | 0.406 ± 0.19 | -0.0965 ± 0.18
SAGGSAGGNPDTPVLTRKTSETFNIAPGEVVKFPDSSVVTPTEDGTYTIDKTITYNGPPDKPLTSAGGSAGG [r6_635_JUSTAS] | 0.345 ± 0.13 | -0.279 ± 0.23
SAGGSAGGSAAEPPPPATIEVLVLNEDGYVYRAEIRVNEDGEITIEVEKIPVKPGESLEELSAGGSAGGSAG [r3_437_TrROS_Hall] | 4 ± 0.23 | 3.79 ± 0.35
SAGGSAGGSAAPEALPPRLVVPRPVLIVDKAPLEEVEVEELRKAAEEFARAVPDAVVLVDEESAGGSAGGSA [r18_499_TrMRF] | 0.788 ± 0.12 | 0.0223 ± 0.23
SAGGSAGGSAGAPSAPRSVPEVRLLNIDIPASADDPESVELARRLARAALENDAVVVINESAGGSAGGSAGG [r11_519_TrMRF] | 0.826 ± 0.11 | 0.268 ± 0.11
SAGGSAGGSAGAPVEVVITFESPTSRTTRTFPADLPEAEVERLAAALRAAHPEPVRVEPRSAGGSAGGSAGG [r11_515_JUSTAS] | -0.981 ± 0.48 | < -1
SAGGSAGGSAGASSLTLEELLKLHPGTVVRKERVELVEGKLVIDLVVEKVDPDTDKLTPESAGGSAGGSAGG [r11_20_JUSTAS] | 0.893 ± 0.043 | 0.409 ± 0.14
SAGGSAGGSAGAVTVTVDAAPDPLPDREYVVVTVERTLPSGEVLAESRVFDRAEEALEAASAGGSAGGSAGG [r11_792_TrMRF] | 0.432 ± 0.14 | -0.209 ± 0.26
SAGGSAGGSAGAWTDPDGNPYEVKEATVASLGPENPIVLVRFSENGELRLVPLEQALADLSAGGSAGGSAGG [r17_517_TrMRF] | 0.558 ± 0.16 | -0.0575 ± 0.25
SAGGSAGGSAGDPNYVQVTIRMPMERRNPEDGKWERNPMEITIPFKSKDQADKIAEEIGISAGGSAGGSAGG [r11_984_TrROS] | -0.0109 ± 0.18 | -0.375 ± 0.23
SAGGSAGGSAGEAAIEAAIAANSPDKDATVALPGGETVRLKFTRDPKVPTLLSLDVEREPPRSAGGSAGGSA [r18_202_JUSTAS] | -0.61 ± 0.29 | < -1
SAGGSAGGSAGEIVIDVEPNMTVEEVKKRIKALAEELKKEKGLEIKKIEIKEGMSVEELLSAGGSAGGSAGG [r17_43_TrROS_Hall] | 0.225 ± 0.077 | -0.00172 ± 0.13
SAGGSAGGSAGEVLIVAPAALLKEAIGPGVEVLAVDDDVVVVRVPVPPVPLTDANGNPLPSAGGSAGGSAGG [r11_828_TrMRF] | 0.598 ± 0.047 | -0.15 ± 0.3
SAGGSAGGSAGGAKPVTFTFPDGTKAVSVEETPTSVVLYDPGPGALYVLDKETKTITPASAGGSAGGSAGGS [r10_289_TrMRF] | -0.512 ± 0.29 | -0.72 ± 0.34
SAGGSAGGSAGGDPIRVDDIEPNPDRLEIDIRNFGNGNQKKHTIPPGSPPKIKPGDYIRSAGGSAGGSAGGS [r10_834_TrROS] | 0.857 ± 0.12 | 0.229 ± 0.26

Reference: the supplement of paper PMC12764529
